# Reference: patent US20220143024A1, “METHODS OF USING IMIPRIDONES” (Board of Regents, The University of Texas System, priority 2019, published 2022)
# Experiments:
# Test in all cases: BioID-MS
# MRM3 (human) = MRM3 (human) (UniProt Q9HC36)
# NDUFS7 (human) = NDUFS7 (human) (UniProt O75251)
# ACAA2 (human) = ACAA2 (human) (UniProt P42765)
# UQCRB (human) = UQCRB (human) (UniProt P14927)
# HIBCH (human) = HIBCH (human) (UniProt Q6NVY1)
# SLIRP (human) = SLIRP (human) (UniProt Q9GZT3)
# SDHA (human) = SDHA (human) (UniProt P31040)
# Chain of SDHA (human) (P31040 43-664 limits assumed): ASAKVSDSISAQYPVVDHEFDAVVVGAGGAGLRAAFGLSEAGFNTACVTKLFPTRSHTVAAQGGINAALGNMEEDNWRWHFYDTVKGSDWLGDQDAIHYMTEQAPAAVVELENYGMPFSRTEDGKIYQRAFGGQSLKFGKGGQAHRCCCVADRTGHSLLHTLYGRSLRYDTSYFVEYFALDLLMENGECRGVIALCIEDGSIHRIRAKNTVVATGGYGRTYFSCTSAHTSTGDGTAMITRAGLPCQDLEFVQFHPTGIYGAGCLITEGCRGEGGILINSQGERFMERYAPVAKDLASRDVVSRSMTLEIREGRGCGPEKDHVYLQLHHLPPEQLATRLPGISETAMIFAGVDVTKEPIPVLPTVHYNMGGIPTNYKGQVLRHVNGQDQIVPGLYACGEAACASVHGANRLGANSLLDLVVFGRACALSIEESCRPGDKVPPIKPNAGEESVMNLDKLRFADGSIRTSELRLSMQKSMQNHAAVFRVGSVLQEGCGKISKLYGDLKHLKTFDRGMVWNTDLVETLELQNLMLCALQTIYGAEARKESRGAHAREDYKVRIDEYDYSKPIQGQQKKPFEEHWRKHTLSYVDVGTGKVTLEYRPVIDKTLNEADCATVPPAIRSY
# GRSF1 (human) = GRSF1 (human) (UniProt Q12849)
# MRPS6 (human) = MRPS6 (human) (UniProt P82932)
# AK3 (human) = AK3 (human) (UniProt Q9UIJ7)
# Chain of AK3 (human) (Q9UIJ7 whole entry): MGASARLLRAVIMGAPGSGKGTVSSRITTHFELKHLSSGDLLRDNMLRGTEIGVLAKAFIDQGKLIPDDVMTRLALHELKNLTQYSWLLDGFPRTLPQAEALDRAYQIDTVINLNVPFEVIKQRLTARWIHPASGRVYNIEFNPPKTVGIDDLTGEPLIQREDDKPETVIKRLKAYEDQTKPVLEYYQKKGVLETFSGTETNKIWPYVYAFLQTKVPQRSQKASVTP
# GLS (human) = GLS (human) (UniProt O94925)
# CARS2 (human) = CARS2 (human) (UniProt Q9HA77)
# SUCLG2 (human) = SUCLG2 (human) (UniProt Q96I99)
# COX5B (human) = COX5B (human) (UniProt P10606)
# Chain of COX5B (human) (P10606 32-129 limits assumed): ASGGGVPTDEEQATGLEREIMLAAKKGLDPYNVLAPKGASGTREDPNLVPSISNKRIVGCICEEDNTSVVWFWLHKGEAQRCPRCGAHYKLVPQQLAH
# MRPS15 (human) = MRPS15 (human) (UniProt P82914)
# HSDL2 (human) = HSDL2 (human) (UniProt Q6YN16)
# MRPL40 (human) = MRPL40 (human) (UniProt Q9NQ50)
# DHRS4 (human) = DHRS4 (human) (UniProt Q9BTZ2)
# SLC27A2 (human) = SLC27A2 (human) (UniProt O14975)
# Chain of SLC27A2 (human) (O14975 whole entry): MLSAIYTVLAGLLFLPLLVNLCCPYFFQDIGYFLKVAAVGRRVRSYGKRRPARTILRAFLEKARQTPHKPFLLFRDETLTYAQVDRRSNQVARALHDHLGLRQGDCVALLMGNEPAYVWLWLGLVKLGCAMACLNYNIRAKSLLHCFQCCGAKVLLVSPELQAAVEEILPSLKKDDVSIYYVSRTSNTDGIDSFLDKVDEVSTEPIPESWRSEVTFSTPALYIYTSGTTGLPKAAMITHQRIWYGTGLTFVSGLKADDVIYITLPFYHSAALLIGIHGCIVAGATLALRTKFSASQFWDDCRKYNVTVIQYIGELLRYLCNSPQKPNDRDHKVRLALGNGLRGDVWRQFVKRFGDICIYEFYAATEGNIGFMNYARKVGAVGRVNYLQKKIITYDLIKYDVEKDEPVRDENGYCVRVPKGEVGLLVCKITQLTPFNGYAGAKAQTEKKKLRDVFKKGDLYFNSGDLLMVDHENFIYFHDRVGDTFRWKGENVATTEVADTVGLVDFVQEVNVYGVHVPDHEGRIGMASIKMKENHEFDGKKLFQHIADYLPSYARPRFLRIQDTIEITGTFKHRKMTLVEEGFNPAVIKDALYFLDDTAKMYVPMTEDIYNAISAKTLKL
# NIPSNAP1 (human) = NIPSNAP1 (human) (UniProt Q9BPW8)
# Chain of NIPSNAP1 (human) (Q9BPW8 36-284 limits assumed): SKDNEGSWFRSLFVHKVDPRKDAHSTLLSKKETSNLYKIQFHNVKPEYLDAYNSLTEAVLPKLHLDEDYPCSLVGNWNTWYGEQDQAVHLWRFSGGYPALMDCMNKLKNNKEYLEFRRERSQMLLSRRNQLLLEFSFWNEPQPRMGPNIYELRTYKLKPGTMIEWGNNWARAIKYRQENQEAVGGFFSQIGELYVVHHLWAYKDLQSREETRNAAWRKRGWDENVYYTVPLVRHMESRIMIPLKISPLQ
# ALDH6A1 (human) = ALDH6A1 (human) (UniProt Q02252)
# ALDH1L2 (human) = ALDH1L2 (human) (UniProt Q3SY69)
# NDUFS4 (human) = NDUFS4 (human) (UniProt O43181)
# Chain of NDUFS4 (human) (O43181 43-175 limits assumed): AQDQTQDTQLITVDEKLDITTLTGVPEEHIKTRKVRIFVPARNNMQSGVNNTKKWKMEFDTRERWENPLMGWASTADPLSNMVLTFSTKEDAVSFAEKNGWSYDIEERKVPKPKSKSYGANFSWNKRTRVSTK
# IDI1 (human) = IDI1 (human) (UniProt Q13907)
# Chain of IDI1 (human) (Q13907 whole entry): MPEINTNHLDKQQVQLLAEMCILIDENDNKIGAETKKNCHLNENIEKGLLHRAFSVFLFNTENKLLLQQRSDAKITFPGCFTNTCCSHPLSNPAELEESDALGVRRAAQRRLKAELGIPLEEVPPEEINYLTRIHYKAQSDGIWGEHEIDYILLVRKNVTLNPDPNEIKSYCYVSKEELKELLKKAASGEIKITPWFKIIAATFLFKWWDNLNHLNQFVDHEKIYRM
# EARS2 (human) = EARS2 (human) (UniProt Q5JPH6)
# NDUFA6 (human) = NDUFA6 (human) (UniProt P56556)
# Chain of NDUFA6 (human) (P56556 whole entry): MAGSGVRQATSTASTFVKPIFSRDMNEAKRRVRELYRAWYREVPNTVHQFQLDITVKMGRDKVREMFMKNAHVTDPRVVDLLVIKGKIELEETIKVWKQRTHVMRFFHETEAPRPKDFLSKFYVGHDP
# FMC1 (human) = FMC1 (human) (UniProt Q96HJ9)
# NUDT19 (human) = NUDT19 (human) (UniProt A8MXV4)
# POLRMT (human) = POLRMT (human) (UniProt O00411)
# OGDH (human) = OGDH (human) (UniProt Q02218)
# CPOX (human) = CPOX (human) (UniProt P36551)
# NDUFAF4 (human) = NDUFAF4 (human) (UniProt Q9P032)
# PMPCA (human) = PMPCA (human) (UniProt Q10713)
# BCKDHA (human) = BCKDHA (human) (UniProt P12694)
# NDUFA2 (human) = NDUFA2 (human) (UniProt O43678)
# SFXN4 (human) = SFXN4 (human) (UniProt Q6P4A7)
# C8orf82 (human) = C8orf82 (human) (UniProt Q6P1X6)
# Chain of C8orf82 (human) (Q6P1X6 whole entry): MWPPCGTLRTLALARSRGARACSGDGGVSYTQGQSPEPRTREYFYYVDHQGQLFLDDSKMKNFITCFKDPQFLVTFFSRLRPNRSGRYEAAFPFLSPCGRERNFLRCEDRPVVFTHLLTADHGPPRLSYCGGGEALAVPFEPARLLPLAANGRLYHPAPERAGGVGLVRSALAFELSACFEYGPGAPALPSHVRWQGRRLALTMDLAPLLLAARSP
# GPT2 (human) = GPT2 (human) (UniProt Q8TD30)
# IDH3A (human) = IDH3A (human) (UniProt P50213)
# C2orf56 (human) = C2orf56 (human) (UniProt Q7L592)
# Chain of C2orf56 (human) (Q7L592 47-441 limits assumed): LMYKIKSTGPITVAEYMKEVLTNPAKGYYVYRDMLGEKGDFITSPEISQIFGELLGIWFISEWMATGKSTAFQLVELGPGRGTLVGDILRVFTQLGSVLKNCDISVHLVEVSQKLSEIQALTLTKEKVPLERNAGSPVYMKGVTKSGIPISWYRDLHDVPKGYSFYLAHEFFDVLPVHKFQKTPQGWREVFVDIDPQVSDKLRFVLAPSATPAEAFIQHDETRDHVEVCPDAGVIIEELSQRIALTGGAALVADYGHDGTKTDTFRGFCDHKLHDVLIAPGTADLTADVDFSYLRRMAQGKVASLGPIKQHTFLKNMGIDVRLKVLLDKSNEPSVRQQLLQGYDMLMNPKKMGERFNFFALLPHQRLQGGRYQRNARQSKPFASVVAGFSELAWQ
# QRSL1 (human) = QRSL1 (human) (UniProt Q9H0R6)
# Chain of QRSL1 (human) (Q9H0R6 whole entry): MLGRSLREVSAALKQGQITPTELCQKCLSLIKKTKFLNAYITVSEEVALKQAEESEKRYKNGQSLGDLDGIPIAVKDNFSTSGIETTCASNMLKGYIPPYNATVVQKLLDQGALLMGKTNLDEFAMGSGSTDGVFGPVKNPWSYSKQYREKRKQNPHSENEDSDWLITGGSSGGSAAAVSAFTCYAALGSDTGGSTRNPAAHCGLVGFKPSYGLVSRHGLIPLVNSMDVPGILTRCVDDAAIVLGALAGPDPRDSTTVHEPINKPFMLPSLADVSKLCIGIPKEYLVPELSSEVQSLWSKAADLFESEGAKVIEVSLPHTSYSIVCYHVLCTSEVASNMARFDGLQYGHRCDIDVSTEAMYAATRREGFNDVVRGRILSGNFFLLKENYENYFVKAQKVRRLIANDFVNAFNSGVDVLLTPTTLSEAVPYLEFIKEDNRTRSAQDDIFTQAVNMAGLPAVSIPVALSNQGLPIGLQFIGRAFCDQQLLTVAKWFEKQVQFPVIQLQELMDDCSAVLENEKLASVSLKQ
# GTPBP10 (human) = GTPBP10 (human) (UniProt A4D1E9)
# ACAD10 (human) = ACAD10 (human) (UniProt Q6JQN1)
# Chain of ACAD10 (human) (Q6JQN1 whole entry): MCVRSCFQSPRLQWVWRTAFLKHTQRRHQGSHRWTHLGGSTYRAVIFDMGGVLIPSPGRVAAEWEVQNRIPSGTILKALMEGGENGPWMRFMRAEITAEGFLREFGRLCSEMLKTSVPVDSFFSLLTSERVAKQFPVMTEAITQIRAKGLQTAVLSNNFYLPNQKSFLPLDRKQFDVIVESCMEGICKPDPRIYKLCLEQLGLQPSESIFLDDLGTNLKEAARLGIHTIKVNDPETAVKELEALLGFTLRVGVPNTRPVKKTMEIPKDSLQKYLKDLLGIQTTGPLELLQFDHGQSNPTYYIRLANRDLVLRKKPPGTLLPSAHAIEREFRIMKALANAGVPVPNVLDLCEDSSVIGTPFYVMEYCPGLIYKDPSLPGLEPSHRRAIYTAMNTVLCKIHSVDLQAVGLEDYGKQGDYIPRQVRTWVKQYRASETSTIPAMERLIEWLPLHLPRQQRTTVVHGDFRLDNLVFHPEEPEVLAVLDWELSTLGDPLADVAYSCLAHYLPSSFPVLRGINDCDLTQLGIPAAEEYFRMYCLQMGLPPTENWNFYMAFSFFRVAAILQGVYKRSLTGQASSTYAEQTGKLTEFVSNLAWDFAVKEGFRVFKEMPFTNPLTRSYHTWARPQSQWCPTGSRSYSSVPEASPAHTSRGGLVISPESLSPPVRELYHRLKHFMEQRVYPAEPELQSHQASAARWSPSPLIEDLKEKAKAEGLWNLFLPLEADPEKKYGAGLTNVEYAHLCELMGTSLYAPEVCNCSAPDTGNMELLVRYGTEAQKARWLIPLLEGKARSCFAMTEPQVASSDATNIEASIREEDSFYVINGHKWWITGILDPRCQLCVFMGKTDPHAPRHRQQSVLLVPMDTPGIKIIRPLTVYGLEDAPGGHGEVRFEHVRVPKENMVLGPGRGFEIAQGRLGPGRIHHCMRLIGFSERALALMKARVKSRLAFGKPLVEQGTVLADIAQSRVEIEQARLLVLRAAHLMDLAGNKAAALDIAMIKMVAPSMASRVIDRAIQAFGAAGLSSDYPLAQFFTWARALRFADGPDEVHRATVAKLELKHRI
# OXA1L (human) = OXA1L (human) (UniProt Q15070)
# PNPT1 (human) = PNPT1 (human) (UniProt Q8TCS8)
# SUPV3L1 (human) = SUPV3L1 (human) (UniProt Q8IYB8)
# HSPE1 (human) = HSPE1 (human) (UniProt P61604)
# GRPEL1 (human) = GRPEL1 (human) (UniProt Q9HAV7)
# GATC (human) = GATC (human) (UniProt O43716)
# GCDH (human) = GCDH (human) (UniProt Q92947)
# MRPL55 (human) = MRPL55 (human) (UniProt Q7Z7F7)
# NFUl (human) = NFUl (human) (UniProt Q9UMS0)
# SHMT2 (human) = SHMT2 (human) (UniProt P34897)
# GTPBP3 (human) = GTPBP3 (human) (UniProt Q969Y2)
# NFS1 (human) = NFS1 (human) (UniProt Q9Y697)
# Chain of NFS1 (human) (Q9Y697 56-457 limits assumed): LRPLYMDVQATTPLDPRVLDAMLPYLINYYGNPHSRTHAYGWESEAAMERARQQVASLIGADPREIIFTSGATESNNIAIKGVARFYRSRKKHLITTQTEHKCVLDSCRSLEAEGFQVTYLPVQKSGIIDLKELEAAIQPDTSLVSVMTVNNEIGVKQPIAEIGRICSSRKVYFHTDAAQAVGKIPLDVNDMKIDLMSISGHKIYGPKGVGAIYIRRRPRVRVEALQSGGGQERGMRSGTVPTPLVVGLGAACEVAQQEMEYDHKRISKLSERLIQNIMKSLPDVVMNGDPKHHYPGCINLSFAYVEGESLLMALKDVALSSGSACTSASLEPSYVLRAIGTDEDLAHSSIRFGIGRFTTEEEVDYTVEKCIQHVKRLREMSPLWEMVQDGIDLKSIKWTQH
# MRPS23 (human) = MRPS23 (human) (UniProt Q9Y3D9)
# PAM16 (human) = PAM16 (human) (UniProt Q9Y3D7)
# POLG (human) = POLG (human) (UniProt P54098)
substance,measurement,setting,value
FlagBirA-ClpP (Y118A) (from UniProt P06709 1-321; Q16740 57-277) (enzyme),Log2 Fold change (vs control),MRM3 (human),0.14 log2
same,Log2 Fold change (vs control),NDUFS7 (human),-0.08 log2
same,Log2 Fold change (vs control),ACAA2 (human),-0.92 log2
same,Log2 Fold change (vs control),UQCRB (human),-2.38 log2
same,Log2 Fold change (vs control),HIBCH (human),0.35 log2
same,Log2 Fold change (vs control),SLIRP (human),0.25 log2
same,Log2 Fold change (vs control),SDHA (human),0.34 log2
same,Log2 Fold change (vs control),GRSF1 (human),1.91 log2
same,Log2 Fold change (vs control),MRPS6 (human),-0.62 log2
same,Log2 Fold change (vs control),AK3 (human),-0.28 log2
same,Log2 Fold change (vs control),GLS (human),0.21 log2
same,Log2 Fold change (vs control),CARS2 (human),-0.38 log2
same,Log2 Fold change (vs control),SUCLG2 (human),-0.49 log2
same,Log2 Fold change (vs control),COX5B (human),0.46 log2
same,Log2 Fold change (vs control),MRPS15 (human),-2.32 log2
same,Log2 Fold change (vs control),HSDL2 (human),0.83 log2
same,Log2 Fold change (vs control),MRPL40 (human),0.37 log2
same,Log2 Fold change (vs control),DHRS4 (human),0.14 log2
same,Log2 Fold change (vs control),SLC27A2 (human),-3.81 log2
same,Log2 Fold change (vs control),NIPSNAP1 (human),0.11 log2
same,Log2 Fold change (vs control),ALDH6A1 (human),-1.22 log2
same,Log2 Fold change (vs control),ALDH1L2 (human),-0.69 log2
same,Log2 Fold change (vs control),NDUFS4 (human),-0.57 log2
same,Log2 Fold change (vs control),IDI1 (human),1.28 log2
same,Log2 Fold change (vs control),EARS2 (human),-0.17 log2
same,Log2 Fold change (vs control),NDUFA6 (human),0.44 log2
same,Log2 Fold change (vs control),FMC1 (human),0.41 log2
same,Log2 Fold change (vs control),NUDT19 (human),-0.58 log2
same,Log2 Fold change (vs control),POLRMT (human),0.57 log2
same,Log2 Fold change (vs control),OGDH (human),1.67 log2
same,Log2 Fold change (vs control),CPOX (human),0.88 log2
same,Log2 Fold change (vs control),NDUFAF4 (human),1.06 log2
same,Log2 Fold change (vs control),PMPCA (human),0.15 log2
same,Log2 Fold change (vs control),BCKDHA (human),1.68 log2
same,Log2 Fold change (vs control),NDUFA2 (human),-0.23 log2
same,Log2 Fold change (vs control),SFXN4 (human),-0.38 log2
same,Log2 Fold change (vs control),C8orf82 (human),1.6 log2
same,Log2 Fold change (vs control),GPT2 (human),0.21 log2
same,Log2 Fold change (vs control),IDH3A (human),-0.06 log2
same,Log2 Fold change (vs control),C2orf56 (human),0.19 log2
same,Log2 Fold change (vs control),QRSL1 (human),-0.01 log2
same,Log2 Fold change (vs control),GTPBP10 (human),-0.91 log2
same,Log2 Fold change (vs control),ACAD10 (human),-4.09 log2
same,Log2 Fold change (vs control),OXA1L (human),-1 log2
same,Log2 Fold change (vs control),PNPT1 (human),-0.07 log2
same,Log2 Fold change (vs control),SUPV3L1 (human),0.56 log2
same,Log2 Fold change (vs control),HSPE1 (human),0.92 log2
same,Log2 Fold change (vs control),GRPEL1 (human),0 log2
same,Log2 Fold change (vs control),GATC (human),-0.05 log2
same,Log2 Fold change (vs control),GCDH (human),1 log2
same,Log2 Fold change (vs control),MRPL55 (human),-0.2 log2
same,Log2 Fold change (vs control),NFUl (human),-0.32 log2
same,Log2 Fold change (vs control),SHMT2 (human),-0.25 log2
same,Log2 Fold change (vs control),GTPBP3 (human),-0.5 log2
same,Log2 Fold change (vs control),NFS1 (human),0.25 log2
same,Log2 Fold change (vs control),MRPS23 (human),-0.22 log2
same,Log2 Fold change (vs control),PAM16 (human),-0.42 log2
same,Log2 Fold change (vs control),POLG (human),0.26 log2
